{"source": "patent US20240101645A1", "about": "(HENRY M JACKSON FOUNDATION FOR THE ADVANCEMENT OF MILITARY …, published 2024)", "binders": {"B1": {"name": "COV_2056 (SEQ ID NO:792/797) (antibody, V domains shown)", "VH": "EVQLVESGGGVVQPGRSLRLSCAASGFTFSIYGMHWVRQAPGKGLEWVALISYDGTNKYYADSVKGRFSISRDDSKNTLYLQMNSLRPEDTAVYYCAKVLMMGDSSGFSLGDAFDIWGQGTMVTVSS", "VL": "DIQMTQSPSSVSASVGDRVTITCRASQGISNWLAWYQQKPGKAPKLLIYAASSLQSGVPSRFSGSVSGTDFTLTISSLQPEDFATYYCQQANSFPLTFGGGTKVDIKR"}, "B2": {"name": "COV_1170 (antibody, V domains shown)", "VH": "QVQLVESGGGVVQPGRSLRLSCAASGFTFSTYAMHWVRQAPGKGLEWVALISYDGSNKYYADSVKGRFTISRDNSKNTLDLQMNSLRAEDTAVYYCARSLGGYRTGFDYWGQGTLVTVSS", "VL": "DIQLTQSPSFLSASVGDRVTITCRASQGISSYLAWYQQKPGKAPKLLIYAASTLQSGVPSRFSGSGSGTEFTLTISSLQPEDFATYYCQQLNSYPPFTFGPGTKVDIKR", "notes": "human IgG1"}, "B3": {"name": "COV_1149 (antibody, V domains shown)", "VH": "QVQLVESGGGVVQPGRSLRLSCAASGFTFSSYGMHWVRQAPGKGLEWVAVISYDGSNKYYADSVKGRFTISRDNSKNTLYLQMNSLRAEDTAVYYCAKTGGGYSYGLGNVWGQGTLVTVSS", "VL": "QSALTQPASVSGSPGQSITISCTGTSSDVGGYNYVSWYQQHPGKAPKLMIYDVSNRPSGVSNRFSGSKSGNTASLTISGLQAEDEADYYCSSYTSSSTLVVFGGGTKLTVLG", "notes": "human IgG1"}, "B4": {"name": "COV_1201 (antibody, V domains shown)", "VH": "QVQLVQSGAEVKKPGASMKVSCKASGYTFTGYYIHWVRQAPGQGLEWMGRINPNSGGTNYAQKFQGRVTMTRDTSISTAYMELSRLRSDDTAVYYCAREYYYVPYGMDVWGQGTTVTVSS", "VL": "QSALTQPASVSGSPGQSITISCTGTSSDVGGYNFVSWYQHHPGKAPKLMIYEVSNRPSGVSNRFSGSKSGNTASLTISGLQAEDEADYYCSSYTSSSTYVFGTGTKVTVL", "notes": "human IgG1"}, "B5": {"name": "COV_1144 (antibody, V domains shown)", "VH": "EVQLVESGGGLVQPGGSLRLSCAASGFTFRSFWMSWVRQAPGKGLEWVANIKEDASEKHYVDPVKGRFTISRDNAKNSLYLQLNSLRAEDMAVYYCARVGRGYCTNGLCYTAFEYWGQGTLVTVSS", "VL": "DIQMTQSPSSLSASVGDRVTITCRTSQSISNYLNWYQQKPGKAPKLLIYAASSLQSGVPSRFSGSGSGTDFTLTISSLQPEDFATYYCQQSYSTAWTFGQGTKVEIRR", "notes": "human IgG1"}, "B6": {"name": "COV_2123 (antibody, V domains shown)", "VH": "EVQLVESGGGVVQPGRSLRLSCAASGFTFSSYAMHWVRQAPGKGLEWVAVLSYDGSNKYNADSVKGRFTISRDNSKNTLYLQMNSLRVEDTAMYYCARDGVSVTMVRGVIGPLCDYWGQGTLVTVSS", "VL": "not shown", "notes": "human IgG1"}, "B7": {"name": "COV_2077 (antibody, V domains shown)", "VH": "QVQLQESGPGLVKPSETLSLTCTVSGGSISSYSWSWIRQPPGKGLEWIGYIYYSGSTNYNPSLKSRVTISVDTSKNQFSLKLSSVTAADTAVYYCARESMGRYSLELRQPESAFDYWGRGTLVTVSS", "VL": "not shown", "notes": "human IgG1"}, "B8": {"name": "COV_1166 (antibody, V domains shown)", "VH": "EVQLVESGGGLVQPGGSLRLSCAVSGFTFRSFWMSWVRQTPGKGLEWVANIKEDGSEKYYVDSVKGRFTISRDNAKNSLYLQMNSLRAEDTAVYYCAREGRWELLGFAFDIWGQGTMVTVSS", "VL": "not shown", "notes": "human IgG1"}, "B9": {"name": "COV_2048 (antibody, V domains shown)", "VH": "QVQLQESGPGLVKPSETLSLTCTVSGGSISNTSYYWGWIRQPPGKGLEWIGSIYRSGSTYYNPSLKSRVTISIDTSKNQFTLKLSSVTAADTAVYYCARDYYGDYSAKPMEYWGQGTLVTVSS", "VL": "QSALTQPRSVSGSPGQSVTISCTGTSSDVGGYNYVSWYQQHPGKAPKLLIYDVSKRPSGVPDRFSGSKSGNTASLTISGLQAEDEADYYCCSYAGSYVVFGGGAKLTVLG", "notes": "human IgG1"}, "B10": {"name": "COV_2008 (antibody, V domains shown)", "VH": "QVRVVQSGAEVKNPGASVKVSCKVSGYTLTELSIHWVRQAPGNGLEWMGGFDPEDGETIYAQKFQGRVTMTEDTSTDTAYMELSSLRSDDTAVYYCATAGAITGTPRNFYYYYGMDVWGQGTTVTVSS", "VL": "not shown", "notes": "human IgG1"}, "B11": {"name": "COV_1172 (antibody, V domains shown)", "VH": "QVQLQESGPGLVKPSETLSLTCTVSGGSIRSYYWSWIRQPPGKGLEWIGYIYYSGSTNYSPSLKSRVTISVDTSKNQFSLKLNSVTAADTAVYYCARRGLGYCSGDSCSNAFDIWGQGTMVTVSS", "VL": "DIQMTQSPSSLSASVGDRVTITCRASQSISSYLNWYQQKPGRAPELLIYDASSLQSGVPSGFSGSGSGTDFTLTISSLQPEDFATYYCQQSYSTPFTFGPGTKVDIKR", "notes": "human IgG1"}, "B12": {"name": "COV_1151 (antibody, V domains shown)", "VH": "QVQVQQWGAGLLKPSETLSLTCAVYGGSFNNYYWSWIRQPPGKGLEWIGEINHSGSTNYNPSLMSRVTISVDTSKNQFSLKLTSVTAADTAVYFCARGLPVTTFFSSYYGMDVWGQGTTVTVSS", "VL": "EIVLTQSPGTLSLSPGERATLSCRASQSVSRTYLAWYQQKPGQAPRLLIYGASSRATGIPDRFSGSGSGTDFTLTISRLEPEDFAVYYCQHYGSSPWTFGQGTKVEIRR", "notes": "human IgG1"}, "B13": {"name": "COV_2093 (antibody, V domains shown)", "VH": "EVQLVESGGGLVQPGGSLRLSCAASGFMFNRFWMSWVRQAPGKGLEWVTNIKQDGSEKNYVDSVKGRFTISRDNAKNSLYLQMNSLRAEDTAVYYCARDGLYYDFRSPSPFYGMDVWGQGTTVTVSS", "VL": "DIQMTQSPSSLSASVGDRVTITCRASQSISSYLNWYQHKSGKAPKLLIYAASRLQSGVPSRFSGSGSGTDFTLTIVSLQPEDLATYYCQQSYSTPRTFGGGTKVEIKR", "notes": "human IgG1"}, "B14": {"name": "COV_2004 (antibody, V domains shown)", "VH": "QVQLVQSGAEVKKPGASVKVSCKASGYTFTGYYMHWVRQAPGQGLEWMGRINPSSGGTNYAQKFQGRVTMTRDTSISTAYMELSSLRSDDTAVYYCATDGDDGENWFDPWGQGTLVIVSS", "VL": "DIQMTQSPSSLSASVGDRVTITCRASQGISSWLAWYQQKPEKAPKSLIYAASSLQSGVPSRFSGSGSGTDFTLTISSLQPEDFATYYCQQYNSYPYTFGQGTKLEIK", "notes": "human IgG1"}}}
{"biological_target": "T1, HCoV-OC43 spike antigens (bead panel) (HCoV-OC43, UniProt P36334 14-1297)", "T1 sequence": "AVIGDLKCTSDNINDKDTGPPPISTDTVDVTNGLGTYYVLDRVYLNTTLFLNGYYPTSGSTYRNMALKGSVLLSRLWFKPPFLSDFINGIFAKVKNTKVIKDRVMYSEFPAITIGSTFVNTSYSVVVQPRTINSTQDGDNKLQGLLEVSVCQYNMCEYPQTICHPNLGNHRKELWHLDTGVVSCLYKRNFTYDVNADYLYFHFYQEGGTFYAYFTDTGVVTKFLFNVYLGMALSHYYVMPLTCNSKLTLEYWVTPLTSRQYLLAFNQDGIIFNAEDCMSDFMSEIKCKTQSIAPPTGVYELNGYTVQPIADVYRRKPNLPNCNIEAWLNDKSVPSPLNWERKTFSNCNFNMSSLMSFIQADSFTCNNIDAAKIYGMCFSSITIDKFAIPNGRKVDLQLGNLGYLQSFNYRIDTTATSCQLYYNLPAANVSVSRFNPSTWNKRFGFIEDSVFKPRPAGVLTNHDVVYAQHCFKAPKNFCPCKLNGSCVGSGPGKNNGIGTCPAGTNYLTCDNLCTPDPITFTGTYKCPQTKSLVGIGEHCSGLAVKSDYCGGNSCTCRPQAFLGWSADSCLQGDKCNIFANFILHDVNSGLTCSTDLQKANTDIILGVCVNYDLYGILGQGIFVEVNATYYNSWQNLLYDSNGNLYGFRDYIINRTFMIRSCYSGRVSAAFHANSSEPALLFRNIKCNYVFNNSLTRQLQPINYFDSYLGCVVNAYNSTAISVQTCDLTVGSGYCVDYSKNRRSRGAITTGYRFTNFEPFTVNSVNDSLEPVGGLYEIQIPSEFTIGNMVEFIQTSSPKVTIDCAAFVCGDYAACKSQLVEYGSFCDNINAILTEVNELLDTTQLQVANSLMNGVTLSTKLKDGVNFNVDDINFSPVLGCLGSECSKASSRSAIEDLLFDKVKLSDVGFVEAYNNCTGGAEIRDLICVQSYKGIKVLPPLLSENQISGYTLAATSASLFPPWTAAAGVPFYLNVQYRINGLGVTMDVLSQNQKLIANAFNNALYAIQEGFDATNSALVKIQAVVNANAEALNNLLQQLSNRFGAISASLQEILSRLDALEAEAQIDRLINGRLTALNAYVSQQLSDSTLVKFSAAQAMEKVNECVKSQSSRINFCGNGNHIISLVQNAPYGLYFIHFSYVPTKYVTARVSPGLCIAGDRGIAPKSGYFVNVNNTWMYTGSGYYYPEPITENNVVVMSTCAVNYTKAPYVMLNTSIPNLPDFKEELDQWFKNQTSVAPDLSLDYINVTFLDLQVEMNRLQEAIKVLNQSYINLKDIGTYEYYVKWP", "test": "multiplex bead assay"}
{"binder": "B1", "binding result": "no binding"}
{"binder": "B2", "binding result": "no binding"}
{"binder": "B3", "binding result": "no binding"}
{"binder": "B4", "binding result": "no binding"}
{"binder": "B5", "binding result": "no binding"}
{"binder": "B6", "binding result": "no binding"}
{"binder": "B7", "binding result": "no binding"}
{"binder": "B8", "binding result": "no binding"}
{"binder": "B9", "binding result": "no binding"}
{"binder": "B10", "binding result": "no binding"}
{"binder": "B11", "binding result": "no binding"}
{"binder": "B12", "binding result": "no binding"}
{"binder": "B13", "binding result": "no binding"}
{"biological_target": "T2, HCoV-229E spike antigens (bead panel) (HCoV-229E, UniProt P15423 16-1115)", "T2 sequence": "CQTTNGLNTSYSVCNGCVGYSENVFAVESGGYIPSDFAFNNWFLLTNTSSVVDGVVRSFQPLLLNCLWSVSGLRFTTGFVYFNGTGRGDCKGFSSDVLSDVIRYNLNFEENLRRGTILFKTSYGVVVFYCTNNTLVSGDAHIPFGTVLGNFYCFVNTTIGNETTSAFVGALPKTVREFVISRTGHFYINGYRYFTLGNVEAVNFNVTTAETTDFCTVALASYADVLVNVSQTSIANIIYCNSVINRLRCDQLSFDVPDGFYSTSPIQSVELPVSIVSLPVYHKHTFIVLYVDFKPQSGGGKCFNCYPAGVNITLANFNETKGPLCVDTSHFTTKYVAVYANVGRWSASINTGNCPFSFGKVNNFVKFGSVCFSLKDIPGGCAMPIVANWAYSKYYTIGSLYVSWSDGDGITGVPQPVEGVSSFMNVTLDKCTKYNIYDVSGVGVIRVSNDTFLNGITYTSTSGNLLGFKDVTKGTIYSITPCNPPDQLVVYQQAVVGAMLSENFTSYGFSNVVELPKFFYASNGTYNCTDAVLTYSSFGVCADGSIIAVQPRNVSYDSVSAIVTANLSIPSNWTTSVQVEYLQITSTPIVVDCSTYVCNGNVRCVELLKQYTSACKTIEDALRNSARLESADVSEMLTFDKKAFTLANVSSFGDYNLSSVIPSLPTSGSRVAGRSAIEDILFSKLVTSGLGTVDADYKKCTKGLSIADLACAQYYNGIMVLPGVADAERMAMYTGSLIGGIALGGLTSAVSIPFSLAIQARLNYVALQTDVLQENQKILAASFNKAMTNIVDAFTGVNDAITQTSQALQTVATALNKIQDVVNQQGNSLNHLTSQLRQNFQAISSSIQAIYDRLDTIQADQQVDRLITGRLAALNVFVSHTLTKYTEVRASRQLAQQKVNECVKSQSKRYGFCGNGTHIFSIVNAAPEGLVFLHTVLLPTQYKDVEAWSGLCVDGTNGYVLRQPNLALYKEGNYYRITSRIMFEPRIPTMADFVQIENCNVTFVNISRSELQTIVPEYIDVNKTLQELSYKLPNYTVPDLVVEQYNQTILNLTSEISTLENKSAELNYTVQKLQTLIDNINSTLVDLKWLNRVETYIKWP", "test": "multiplex bead assay"}
{"binder": "B1", "binding result": "no binding"}
{"binder": "B2", "binding result": "no binding"}
{"binder": "B3", "binding result": "no binding"}
{"binder": "B4", "binding result": "no binding"}
{"binder": "B5", "binding result": "no binding"}
{"binder": "B7", "binding result": "no binding"}
{"binder": "B8", "binding result": "no binding"}
{"binder": "B9", "binding result": "no binding"}
{"binder": "B10", "binding result": "no binding"}
{"binder": "B11", "binding result": "no binding"}
{"binder": "B14", "binding result": "no binding"}
{"binder": "B12", "binding result": "no binding"}
{"binder": "B13", "binding result": "no binding"}
